Results taken from paper PMC12709181.

What was measured:
[1] = target: proliferating cell nuclear antigen (PCNA) (yeast) (UniProt P15873)
[2] = target: proliferating cell nuclear antigen (PCNA) (yeast) (UniProt P15873); remark: listed apart in the source

Chain of proliferating cell nuclear antigen (PCNA) (yeast) (P15873 whole entry): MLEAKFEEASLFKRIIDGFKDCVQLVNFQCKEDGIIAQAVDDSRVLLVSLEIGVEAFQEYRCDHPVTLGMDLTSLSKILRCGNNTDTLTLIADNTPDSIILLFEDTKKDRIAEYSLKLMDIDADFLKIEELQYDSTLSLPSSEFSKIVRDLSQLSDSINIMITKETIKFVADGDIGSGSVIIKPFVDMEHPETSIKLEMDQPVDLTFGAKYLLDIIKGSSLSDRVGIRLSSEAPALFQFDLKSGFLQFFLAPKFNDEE

holoenzyme assay: product length of DNA synthesis on single-primed M13mp18 ssDNA with PCNA loaded by RFC (10 and 20 min); stimulated by PCNA, although to a lesser extent than wild-type Pol ε [1] [bp]	processivity assay under single-hit conditions: product length on primed M13mp18 ssDNA upon addition of PCNA (0, 5, 10, 20 min); increase comparable to wild type [2] [nts]	holoenzyme assay: product length of DNA synthesis on single-primed M13mp18 ssDNA with PCNA loaded by RFC (10 and 20 min); much less stimulation by PCNA [1] [bp]	processivity assay under single-hit conditions: product length on primed M13mp18 ssDNA upon addition of PCNA (0, 5, 10, 20 min) [2] [nts]	Substance
3000	300			four-subunit yeast Pol ε with the P-domain mutations D695A, E696A, N698A, K745A in Pol2 (DENK) (from UniProt P21951 1-2222; P24482 1-689; P27344 1-201; Q04603 1-196) (complex)
		400	85	four-subunit yeast Pol ε with the P-domain mutation KKRL736-739AAAA in Pol2 (P3) (from UniProt P21951 1-2222; P24482 1-689; P27344 1-201; Q04603 1-196) (complex)
			300	wild-type four-subunit yeast DNA polymerase ε (Pol2, Dpb2, Dpb3, Dpb4) (from UniProt P21951 1-2222; P24482 1-689; P27344 1-201; Q04603 1-196) (complex)
